These results are taken from PMC6319348, “Phase I/II clinical trial of the targeted chemotherapeutic drug, folate-tubulysin, in dogs with naturally-occurring invasive urothelial carcinoma” (Oncotarget, 2018).

Like-named read-outs stand apart in the source and are kept apart here.

This data set is described as follows: Plasma pharmacokinetic analysis. The class given is in vivo, dog. How it is done: Plasma pharmacokinetic analysis was conducted in six dogs sequentially enrolled in the trial. Blood was collected at 0, 2, 10, and 30 minutes, and at 1, 2, 8, and 24 hours after treatment.
Tubes were centrifuged, and plasma collected and stored at –80° C.
For the analysis of EC0531 concentrations in plasma, the EC0531 was extracted from 100 µL of dog plasma by 96-well solid phase extraction (SPE). Internal standard was added to all samples prior to extraction using a Strata X-A SPE plate (Phenomenex, Torrance, CA, USA). The eluate was collected, evaporated, and finally reconstituted with 85/15 water/acetonitrile with 40 mM mannitol. The extracted samples were injected into a UPLC/MS/MS system (Waters, Milford, MA, USA) using a BEH C18 reverse phase column (Waters) implementing a mobile phase gradient. Incurred sample concentrations were then back-calculated against a calibration curve prepared in blank dog plasma.
Internal standard was added to all samples prior to extraction using a 200 µL SLE+ plate (Biotage, Charlotte, NC, USA). The eluate was collected, evaporated, and reconstituted with acetone prior to sealing and heating the collection plate for 1 hour. After incubation, the extracts were again evaporated and finally reconstituted prior to injection. The extracted samples were injected into a UPLC/MS/MS system (Waters) using a BEH shield RP18 reverse phase column (Waters) and eluted under isocratic conditions. […] Incurred sample concentrations were then back-calculated against a calibration curve prepared in blank dog plasma. […] Samples were homogenized in buffer with a bead beater, or hand held homogenizer. Aliquots (100 µL) of each sample were spiked with 400 µL internal standards in acetone. The extracts were sealed and incubated at 55° C for 1 hour. The extracts were then evaporated to remove acetone, and reconstituted. Finally, reconstituted samples were analyzed by injection into a UPLC-MS/MS system (Waters) to evaluate concentrations of EC0531 and metabolites against a prepared calibration curve.

Where [1] appears, read: dog, plasma, iv, 0.28 mg/kg, Avg of six dogs, EC0531 in plasma, single 0.28 mg/kg IV.

As a reminder, the Tmax is the time from dosing to the highest level. The term AUC(0-inf) denotes total exposure, with the tail of the curve extrapolated. Low readings indicate low exposure, high ones high exposure. As a reminder, the AUC(0-t) is the area under the concentration-time curve up to a stated or last time point. Read a low AUC(0-t) as low exposure. Broadly, the Cmax is the maximum level reached in the sampled fluid or tissue. The clearance is a measure of how efficiently the substance is removed, as volume per time. `CCCC(=O)OCN(C(=O)[C@@H](NC(=O)[C@H]1CCCCN1C)[C@@H](C)CC)[C@H](C[C@@H](OC(C)=O)c1nc(C(=O)N[C@@H](Cc2ccc(O)cc2)C[C@H](C)C(=O)NNC(=O)OCCSSC[C@H](NC(=O)[C@H](CCC(=O)NC[C@H](O)[C@@H](O)[C@H](O)[C@H](O)CO)NC(=O)CC[C@H](NC(=O)[C@H](CCC(=O)NC[C@H](O)[C@@H](O)[C@H](O)[C@H](O)CO)NC(=O)CC[C@H](NC(=O)[C@H](CCC(=O)NC[C@H](O)[C@@H](O)[C@H](O)[C@H](O)CO)NC(=O)CC[C@H](NC(=O)c2ccc(NCc3cnc4nc(N)[nH]c(=O)c4n3)cc2)C(=O)O)C(=O)O)C(=O)O)C(=O)O)cs1)C(C)C` [EC0531]: under “Norwegian Elkhound, dog, individual dogs #1-6 (c0), EC0531 in plasma, single 0.28 mg/kg IV”, the Tmax was 2 min. Under setting [1], this compound came in with an AUC(0-inf) of 1900 ng·h/mL, an exposure AUC(0-t) of 1890 ng·h/mL, a C0 of 3990 ng/mL and a peak concentration (Cmax) of 3490 ng/mL. The compound further showed a clearance under setting [1] of 2.78 mL/min/kg. In addition, the Vd (dog, plasma, iv, 0.28 mg/kg, Avg of six dogs, EC0531 in plasma, single 0.28 mg/kg IV, read-out: Vz) was found to be 0.102 L/kg. Also, under “dog, plasma, iv, 0.28 mg/kg, Avg of six dogs, EC0531 in plasma, single 0.28 mg/kg IV, read-out: t1/2”, the half-life was determined as 24.7 min. The half-life (dog, plasma, iv, 0.28 mg/kg, dogs, 0.28 mg/kg IV, biphasic pharmacokinetic behavior, read-out: elimination half-life) is about 25 min. For the same compound, the half-life (dog, plasma, iv, 0.28 mg/kg, individual dogs #1-6 (c0), EC0531 in plasma, single 0.28 mg/kg IV, read-out: t1/2) came to 22 min. Moreover, the Tmax (dog, Avg of six dogs, EC0531 in plasma, single 0.28 mg/kg IV) is 2 min. Moreover, the “peak plasma drug concentration relative to concentrations required to kill FR-expressing tumor cells in vitro” value (dogs receiving 0.28 mg/kg, in vitro concentrations from ref 14) was “approximately 700 times”.
